Assay results published in patent US7025971 (WASHINGTON UNIVERSITY, dated 2006).
Where no end group is shown, it is not given here.

B4: PapD (wild type) (other)
chain: AVSLDRTRAVFDGSEKSMTLDISNDNKQLPYLAQAWIENENQEKIITGPVIATPPVQRLEPGAKSMVRLSTTPDISKLPQDRESLFYFNLREIPPRSEKANVLQIALQTKIKLFYRPAAIKTRPNEVWQDQLILNKVSGGYRIENPTPYYVTVIGLGGSEKQAEEGEFETVMLSPRSEQTVKSANYNTPYLSYINDYGGRPVLSFICNGSRCSVKKEK
notes: also called WT PapD; native PapD

Legend:
PapD (wild type) [1] = biological target: B4; experiment: inhibition ELISA: PapD preincubated with peptide, MBP-G1′-140′-coated wells
PapD (wild type) [2] = biological target: B4; experiment: soluble inhibition ELISA on G1′-19′WT-coated wells
Description: (§1) The wells were washed with PBS and blocked with 3% bovine serum albumin (BSA).

PapD (wild type) [3] = biological target: B4; experiment: soluble inhibition ELISA: 25-fold molar excess of peptide, 100 pmol/well PapD, G1′-19′WT-coated wells
Description: as §1

PapD Arg-8-Ala = biological target: T1, PapD Arg-8-Ala (E. coli, UniProt P15319 22-239); experiment: native polyacrylamide gel mobility shift
T1 construct: also called R8A; pR8A
T1 sequence: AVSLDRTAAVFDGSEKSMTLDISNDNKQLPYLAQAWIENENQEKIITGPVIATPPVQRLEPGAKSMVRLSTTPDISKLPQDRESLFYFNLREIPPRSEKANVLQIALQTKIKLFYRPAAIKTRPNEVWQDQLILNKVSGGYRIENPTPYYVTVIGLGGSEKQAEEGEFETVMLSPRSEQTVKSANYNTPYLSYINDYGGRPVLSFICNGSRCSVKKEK

PapD Lys-112-Ala = biological target: T2, PapD Lys-112-Ala (E. coli, UniProt P15319 22-239); experiment: native polyacrylamide gel mobility shift
T2 sequence: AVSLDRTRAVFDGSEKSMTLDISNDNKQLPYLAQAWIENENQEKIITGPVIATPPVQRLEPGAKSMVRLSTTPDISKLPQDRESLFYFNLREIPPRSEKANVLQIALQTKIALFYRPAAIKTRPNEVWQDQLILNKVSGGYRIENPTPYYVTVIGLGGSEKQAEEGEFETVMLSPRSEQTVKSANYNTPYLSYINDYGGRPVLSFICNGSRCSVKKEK

PapD Arg-8-Gly = biological target: T3, PapD Arg-8-Gly (E. coli, UniProt P15319 22-239); experiment: native polyacrylamide gel mobility shift
T3 construct: also called R8G; pR8G
T3 sequence: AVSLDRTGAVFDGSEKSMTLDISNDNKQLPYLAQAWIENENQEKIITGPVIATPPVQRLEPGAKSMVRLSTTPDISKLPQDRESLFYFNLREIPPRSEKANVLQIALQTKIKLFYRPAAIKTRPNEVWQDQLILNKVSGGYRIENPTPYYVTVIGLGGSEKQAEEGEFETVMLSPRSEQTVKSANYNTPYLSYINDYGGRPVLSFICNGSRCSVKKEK

[4] = biological target: T4, modified PapG peptide, Ser-9′ substituted by Cys, labelled with 5-IAF (E. coli); experiment: fluorescence intensity at 514 nm of the 5-IAF-labelled PapG peptide against increasing PapD concentration
T4 construct: also called labelled peptide; fluorescence labelled PapG analogue
Description: The environmentally sensitive fluorescent probe 5-IAF (5-iodoacetamidfluorescein) was then covalently coupled to the peptide via the sulfhydryl group on the Cys residue and the labelled peptide was purified; of course any other suitable envirorenmentally sensitive fluorescent probe may be employed.

[5] = biological target: T5, maltose binding protein (MBP) (UniProt P0AEX9 27-392 = MBP); experiment: co-expression, amylose affinity chromatography
T5 construct: also called MBP control

PapD (wild type) [6] = biological target: B4; experiment: ELISA, peptide coated on wells, PapD in solution
Protocol: (§2) 5 mg/ml stock solutions of peptides in water or 50% acetic acid were diluted to a concentration of 2.5 pmol/50 μl in PBS. 50 μl of the peptide solution was coated overnight onto microtiter wells (Nunc-Immuno Plate Maxisorp) at 4° C. The solutions in the plates were discarded, and the wells were blocked with 200 μl 3% bovine serum albumin (BSA, Sigma) in PBS (120 mM NaCl/2.7 mM KCl/10 mM phosphate buffer salts, pH 7.4) for 2 hours at 25° C. […] After 3 washes with PBS, the wells were incubated with a 1:1000 dilution of goat anti-rabbit IgG coupled to alkaline phosphatase (Sigma) in 3% BSA/PBS for 45 min. at 25° C. Following 3 washes with PBS and 3 washes with developing buffer (10 mM diethanolamine pH 9.5, 0.5 μM MgCl₂), 50 μl filtered p-nitrophenyl phosphate substrate (Sigma) in developing buffer (10 mg/ml) was added.

PapD (wild type) [7] = biological target: B4; experiment: ELISA, peptide coated on wells, PapD in solution, anti-PapD antiserum
Protocol: as §2

PapD (wild type) [8] = biological target: B4; experiment: ELISA, peptide coated on wells, anti-PapD antiserum
PapD (wild type) [9] = biological target: B4; experiment: ELISA, peptide coated on wells, 200 pmol PapD, anti-PapD antiserum
Protocol: For assaying the second site peptides, all the peptides were dissolved in dimethyl sulfoxide (DMSO, Sigma, St. Louis, Mo., USA) to a final concentration 2 mM. The stock solutions were diluted to a proper concentration in PBS and coated overnight on microtiter wells at 4° C. All the peptide solutions were adjusted to the same DMSO concentration. The subsequent steps followed the procedure described above.

PapD (wild type) [10] = biological target: B4; experiment: ELISA, peptide coated on wells (2.5 pmol/50 µl), PapD in solution
Protocol: as §2

B1: G1′-8′WT (peptide)
peptide: MTMVLSFP
notes: also called PapG 8-mer peptide; octameric peptide
- binding result (PapD (wild type) [1]): binds

B2: G1′-19′SV (peptide)
peptide: GKRKPVELSGSMTMVLSSP
notes: Variant of G1′-19′WT with Phe-2′ to Ser and Gly-14′ to Val
- binding result (PapD (wild type) [2]): binds

B3: G1′-19′WT (peptide)
peptide: GKRKPGELSGSMTMVLSFP
notes: Synthetic peptide; residues numbered from the C-terminus (Pro-1′); also called PapG 19-mer peptide; G-peptide
- % Inhibition (PapD (wild type) [3]): 63%
- binding result (PapD Arg-8-Ala): no binding
- binding result (PapD Lys-112-Ala): no binding
- binding result (PapD Arg-8-Gly): no binding

Binder: TMVLSFP [G1′-7′WT]
- % Inhibition (PapD (wild type) [3]): 49%

Binder: B4
- Kd [4]: 2500 nM
- binding result [5]: no binding

Binder: KPGELSGSMTMVLSFP [G1′-16′WT]
- binding result (PapD (wild type) [6]): binds

Binder: KSVVPGDYEATATFELTYR (also called PapK peptide; K-peptide) [K1′-19′WT]
- binding result (PapD (wild type) [7]): binds

B5: SEQ ID NO 22 (peptide)
peptide: QHHYYDLWQDHYKMPY
notes: also called one of the other three second-site peptides of PapG (region 120′ to 156′)
- binding result (PapD (wild type) [8]): no binding (tested: 200 pmol/50 ml of PapD)

Binder: GILNGGDFQTTASMAMIYN (also called PapF peptide) [F1′-19′WT]
- binding result (PapD (wild type) [7]): binds

B6: E1′-19′WT (peptide)
peptide: QNLIAGPFSATATLVASYS
notes: Water insoluble peptide; also called PapE peptide
- binding result (PapD (wild type) [7]): binds

Binder: SGSMTMVLSFP (Water insoluble peptide) [G1′-11′WT]
- binding result (PapD (wild type) [6]): binds

Binder: DQIKQLPATNTLMLSF (also called site 2 peptide) [G125′-140′]
- binding result (PapD (wild type) [9]): binds

B7: SEQ ID NO 21 (peptide)
peptide: YKMPYDQIKQLPATNT
notes: as for B5
- binding result (PapD (wild type) [8]): no binding (tested: 200 pmol/50 ml of PapD)

Binder: KKLEAGNYFAVLGFRVDYE (also called PapH peptide) [H1′-19′WT]
- binding result (PapD (wild type) [10]): no binding

B8: SEQ ID NO 19 (peptide)
peptide: LPATNTLMLSFDNVGG
notes: as for B5
- binding result (PapD (wild type) [8]): no binding (tested: 200 pmol/50 ml of PapD)

Binder: MVLSFP [G1′-6′]
- binding result (PapD (wild type) [1]): binds

Binder: GKRKPGELSGSMTMVLSFP-NH2 (also called G1′-19′NH2) [G1′-19′amide]
- % Inhibition (PapD (wild type) [3]): 56%
